In patent publication US7067474B1, “Agents for treating human illnesses based on β-catenin, and the production and use thereof” (Max-Delbruck-Centrum fur Molekulare Medizin, priority 1998, dated 2006):
Where a chain is given by its changes, count along the chain named. One block for each molecule: values may come before it. Where no end group is shown, it is not given here.

Columns and labels:
[1] = test system: β-catenin/TCF-4 complex; experiment: ELISA with synthetic peptides: formation of the β-catenin/TCF-4 complex; format: binding; details: synthetic TCF4 peptides, analogous to LEF-1 peptides, which inhibit specifically
[2] = target: T1, β-catenin (Homo sapiens, UniProt P35222); experiment: yeast-2-hybrid system: interaction of LEF-1 fragments with β-catenin (β-galactosidase reporter activity); format: binding; details: LEF-1 fragments as Lex-A hybrids
T1 construct: expressed in transfected cells; host or cells: yeast (two-hybrid system, Clontech)
T1 sequence (P35222 1-781): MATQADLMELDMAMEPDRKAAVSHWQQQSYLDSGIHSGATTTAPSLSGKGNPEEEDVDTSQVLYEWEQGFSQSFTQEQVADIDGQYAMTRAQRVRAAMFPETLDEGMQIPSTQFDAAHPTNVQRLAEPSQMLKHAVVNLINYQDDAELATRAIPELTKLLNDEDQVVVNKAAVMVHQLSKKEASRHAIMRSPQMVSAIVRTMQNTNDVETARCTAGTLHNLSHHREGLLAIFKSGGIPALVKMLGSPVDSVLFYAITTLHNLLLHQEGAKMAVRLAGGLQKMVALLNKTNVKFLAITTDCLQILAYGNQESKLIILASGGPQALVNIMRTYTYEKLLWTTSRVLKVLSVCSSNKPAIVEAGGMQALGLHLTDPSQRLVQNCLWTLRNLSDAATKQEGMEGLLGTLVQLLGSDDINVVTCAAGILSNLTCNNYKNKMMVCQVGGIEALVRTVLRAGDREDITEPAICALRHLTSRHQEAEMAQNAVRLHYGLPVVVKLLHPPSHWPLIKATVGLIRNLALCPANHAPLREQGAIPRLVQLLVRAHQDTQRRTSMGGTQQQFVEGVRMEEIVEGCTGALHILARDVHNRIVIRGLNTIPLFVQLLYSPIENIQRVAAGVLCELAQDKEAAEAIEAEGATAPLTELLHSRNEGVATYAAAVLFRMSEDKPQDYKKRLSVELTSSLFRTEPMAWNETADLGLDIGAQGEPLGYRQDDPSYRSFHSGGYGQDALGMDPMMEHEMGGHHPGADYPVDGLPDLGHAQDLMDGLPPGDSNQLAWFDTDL
Protocol: The ‘yeast-2-hybrid system’ was used for identifying the minimum binding domain (FIG. 1). It was possible to limit the minimum binding domain to the N-terminal amino acids 11–27 of LEF-1 which corresponds t) the amino acids 7–29 in TCF-4 (FIG. 2). The interaction of N-terminal LEF-1 fragments with β-catenin was detected by means of activating a lacZ reporter gene (s. example).
The interaction between the partial domains of LEF-1 and β-catenin was analyzed in the yeast-2 hybrid system by determining the activity of β-galactosidase according to information of the producer (Clontech) (FIG. 1). For this purpose the DNA coding for the N-terminal partial domains of LEF-1 was inserted into the cloning site of the Lex-A DNA binding domain which contains vector BTM 116 and checked by sequencing. The DNA fragments of LEF-1 were prepared by a polymerase chain reaction (PCR) and incubation with restriction endonucleases. The DNA coding for β-catenin was cloned into the vector pGAD424 (Clontech) for the activation domain of GAL-4 (Behrens et al. 1996). The β-galactosidase activities of independent experiments were averaged (or comparing the interaction of the hybrids.
The specificity of the interaction of the LEF-1 hybrids with β-catenin was checked by means of the β-galactosidase activity of yeasts producing the LEF hybrids and the GAL-4 activation domain without β-catenin (FIG. 1). The expression of the LEF-1 hybrids was checked in an immunoblot with yeast cell lysates by antibodies (Clontech) as against the Lex-A domain of the hybrids. Equal yeast quantities were used for preparing the lysates after determining the optical density of the cultures.
The interaction of fragments of the binding domain of LEF-1 with β-catenin was analyzed by means of the β-galactosidase reporter activity in the yeast-2-hybrid system. […] Accordingly, the minimum binding domain of LEF-1 for β-catenin consists of 17 amino acids (11–27) showing an acidic character.

[3] = target: conductin amino acids Ala342-Arg465 fused to Lex-A (vector BTM 116) (UniProt P0A7C2); experiment: yeast 2-hybrid, β-galactosidase reporter; percent of wild type β-catenin
[4] = target: human APC amino acids Ser1259-Asp1400 (APC 20 amino acid repeats) fused to Lex-A (vector BTM 116) (human); experiment: as above
[5] = target: E-cadherin amino acids Gln773-Asp884 (cytoplasmatic domain) fused to Lex-A (vector BTM 116) (UniProt P0A7C2 1-202; P09803 773-884); experiment: as above
Protocol: (§1) 4. Preparation and testing of mutants of β-catenin modulating the interaction with LEF-1, APC, conductin or E-cadherin The mutagenesis of β-catenin in the armadillo repeats 3–8 was carried out by means of the "mutagenesis kit" of the company Clontech according to the producer's record and the mutants were checked by sequencing (FIG. 5). In all mutants the original amino acid was substituted by alanine. For analyzing the interactions the cDNA of human β-catenin (armadillo repeat 3 up to the C-terminal end of the protein) coding for the amino acids Leu218–Leu7 µl or its mutants was cloned into the fusion vector for the activation domain of Gal-4 (pGAD424, Clontech). The cDNA for the binding domains of the interaction partners was cloned into the Lex-A fusion vector BTM 116. To this end, the cDNA of LEF-1 for the amino acids 1–99, conductin for the amino acids Ala342–ARG465; of human APC for the amino acids His1012–Glu1215 (APC 15 amino acid repeats) and for the amino acids Ser1259Asp 1400 (APC 20 amino acid repeats) and E-cadherin for the amino acids Gin773–Asp884 (cytoplasmatic domain) were amplified with the respective primers PCR. The interaction of the Lex-A hybrids with β-catenin and its mutants was quantified by means of the β-galactosidase reporter activity in the yeast 2-hybrid system (report: "Matchmaker". Clontech) (Tab. 2 and FIG. 6).

[6] = target: human APC amino acids His1012-Glu1215 (APC 15 amino acid repeats) fused to Lex-A (vector BTM 116) (human); experiment: as above
[7] = target: T2, LEF-1 amino acids 1-99 fused to Lex-A (vector BTM 116) (UniProt P0A7C2 1-202; P27782 1-99); experiment: as above
T2 construct: Order of the fusion follows the vector; also called LEF-1/TCF-4
Protocol: as §1

Molecule: GGDDLGANDELISFKDEGEQEEK [7–29]
inhibition of formation of the β-catenin/TCF-4 complex [1]: Analogous principles apply

Binding to β-catenin (β-galactosidase reporter activity) [2]: does not show any binding activity
Molecule: Met21 up to Val 56: partial domain of LEF-1 covering Met21 up to Val 56

Molecule: DLGANDELISFKDE [10–23]
inhibition of formation of the β-catenin/TCF-4 complex [1]: Analogous principles apply

share of the interaction with wild type β-catenin in percent [3]: 29%
share of the interaction with wild type β-catenin in percent [4]: 40%
share of the interaction with wild type β-catenin in percent [5]: 50%
B1: human β-catenin (Leu218-Leu781) mutant Arg 274 to alanine, Gal-4 activation domain fusion (other, not shown: large carriers; small tags and cut ends)
chain: LHNLSHHREGLLAIFKSGGIPALVKMLGSPVDSVLFYAITTLHNLLLHQEGAKMAVALAGGLQKMVALLNKTNVKFLAITTDCLQILAYGNQESKLIILASGGPQALVNIMRTYTYEKLLWTTSRVLKVLSVCSSNKPAIVEAGGMQALGLHLTDPSQRLVQNCLWTLRNLSDAATKQEGMEGLLGTLVQLLGSDDINVVTCAAGILSNLTCNNYKNKMMVCQVGGIEALVRTVLRAGDREDITEPAICALRHLTSRHQEAEMAQNAVRLHYGLPVVVKLLHPPSHWPLIKATVGLIRNLALCPANHAPLREQGAIPRLVQLLVRAHQDTQRRTSMGGTQQQFVEGVRMEEIVEGCTGALHILARDVHNRIVIRGLNTIPLFVQLLYSPIENIQRVAAGVLCELAQDKEAAEAIEAEGATAPLTELLHSRNEGVATYAAAVLFRMSEDKPQDYKKRLSVELTSSLFRTEPMAWNETADLGLDIGAQGEPLGYRQDDPSYRSFHSGGYGQDALGMDPMMEHEMGGHHPGADYPVDGLPDLGHAQDLMDGLPPGDSNQLAWFDTDL

share of the interaction with wild type β-catenin in percent [3]: 10%
share of the interaction with wild type β-catenin in percent [6]: 100%
share of the interaction with wild type β-catenin in percent [4]: 40%
share of the interaction with wild type β-catenin in percent [7]: 50%
share of the interaction with wild type β-catenin in percent [5]: 100%
B2: human β-catenin (Leu218-Leu781) mutant His 260 to alanine, Gal-4 activation domain fusion (other, not shown: large carriers; small tags and cut ends)
chain: B1 chain with H43A, A57R

share of the interaction with wild type β-catenin in percent [7]: 17%
share of the interaction with wild type β-catenin in percent [5]: 50%
B3: human β-catenin (Leu218-Leu781) mutant Arg 469 to alanine, Gal-4 activation domain fusion (other, not shown: large carriers; small tags and cut ends)
chain: B1 chain with A57R, R252A

share of the interaction with wild type β-catenin in percent [3]: 43%
share of the interaction with wild type β-catenin in percent [6]: 54%
share of the interaction with wild type β-catenin in percent [7]: 38%
share of the interaction with wild type β-catenin in percent [5]: 40%
B4: human β-catenin (Leu218-Leu781) mutant Lys 354 to alanine, Gal-4 activation domain fusion (other, not shown: large carriers; small tags and cut ends)
chain: B1 chain with A57R, K137A

share of the interaction with wild type β-catenin in percent [3]: 20%
share of the interaction with wild type β-catenin in percent [4]: 29%
share of the interaction with wild type β-catenin in percent [5]: 41%
B5: human β-catenin (Leu218-Leu781) mutant Arg 342 to alanine, Gal-4 activation domain fusion (other, not shown: large carriers; small tags and cut ends)
chain: B1 chain with A57R, R125A

share of the interaction with wild type β-catenin in percent [3]: 45%
share of the interaction with wild type β-catenin in percent [6]: 12%
share of the interaction with wild type β-catenin in percent [7]: 35%
B6: human β-catenin (Leu218-Leu781) mutant Arg 386 to alanine, Gal-4 activation domain fusion (other, not shown: large carriers; small tags and cut ends)
chain: B1 chain with A57R, R169A

share of the interaction with wild type β-catenin in percent [3]: 22%
share of the interaction with wild type β-catenin in percent [7]: 38%
share of the interaction with wild type β-catenin in percent [5]: 27%
B7: human β-catenin (Leu218-Leu781) mutant Lys 345 to alanine, Gal-4 activation domain fusion (other, not shown: large carriers; small tags and cut ends)
chain: B1 chain with A57R, K128A

share of the interaction with wild type β-catenin in percent [6]: 60%
share of the interaction with wild type β-catenin in percent [4]: 47%
share of the interaction with wild type β-catenin in percent [7]: 2%
B8: human β-catenin (Leu218-Leu781) mutant His 470 to alanine, Gal-4 activation domain fusion (other, not shown: large carriers; small tags and cut ends)
chain: B1 chain with A57R, H253A

Binding to β-catenin (β-galactosidase reporter activity) [2]: prevent the interaction
B9: 11–23: LEF-1 fragment amino acids 11–23, Lex-A hybrid (protein)
chain: MKALTARQQEVFDLIRDHISQTGMPPTRAEIAQRLGFRSPNAAEEHLKALARKGVIEIVSGASRGIRLLQEEEEGLPLVGRVAAGEPLLAQQHIEGHYQVDPSLFKPNADFLLRVSGMSMKDIGIMDGDLLAVHKTQDVRNGQVVVARIDDEVTVKRLKKQGNKVELLPENSEFKPIVVDLRQQSFTIEGLAVGVIRNGDWLGDPELCATDEMIP

Binding to β-catenin (β-galactosidase reporter activity) [2]: prevent the interaction
B10: 17–34: LEF-1 fragment amino acids 17–34, Lex-A hybrid (protein)
chain: MKALTARQQEVFDLIRDHISQTGMPPTRAEIAQRLGFRSPNAAEEHLKALARKGVIEIVSGASRGIRLLQEEEEGLPLVGRVAAGEPLLAQQHIEGHYQVDPSLFKPNADFLLRVSGMSMKDIGIMDGDLLAVHKTQDVRNGQVVVARIDDEVTVKRLKKQGNKVELLPENSEFKPIVVDLRQQSFTIEGLAVGVIRNGDWLATDEMIPFKDEGDPQKEK

Binding to β-catenin (β-galactosidase reporter activity) [2]: does not result in a loss of bond
B11: 11–27: LEF-1 fragment amino acids 11–27, Lex-A hybrid; minimum binding domain for β-catenin (protein)
chain: MKALTARQQEVFDLIRDHISQTGMPPTRAEIAQRLGFRSPNAAEEHLKALARKGVIEIVSGASRGIRLLQEEEEGLPLVGRVAAGEPLLAQQHIEGHYQVDPSLFKPNADFLLRVSGMSMKDIGIMDGDLLAVHKTQDVRNGQVVVARIDDEVTVKRLKKQGNKVELLPENSEFKPIVVDLRQQSFTIEGLAVGVIRNGDWLGDPELCATDEMIPFKDE
